From publication PMC7784741

Key:
[1] = biological target: YAP-binding domain of TEAD from Anabas testudineus (residues 211-428) (Anabas testudineus); test: SPR
[2] = biological target: YAP-binding domain of human TEAD4, TEAD4 217-434 (human) (UniProt Q15561); test: SPR
Chain of YAP-binding domain of human TEAD4, TEAD4 217-434 (human) (Q15561 217-434): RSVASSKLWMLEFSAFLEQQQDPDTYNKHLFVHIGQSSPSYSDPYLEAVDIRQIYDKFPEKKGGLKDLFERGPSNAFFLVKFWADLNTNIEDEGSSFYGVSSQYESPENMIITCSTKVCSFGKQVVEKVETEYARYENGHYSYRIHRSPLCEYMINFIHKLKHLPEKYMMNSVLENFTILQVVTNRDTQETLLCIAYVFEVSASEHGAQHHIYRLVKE

Substance: synthetic peptide of the TEAD-binding domain of YAP, Anabas testudineus_2 (residues 21-60)
- Kd [1]: 60 nM

Substance: synthetic peptide of the TEAD-binding domain of YAP, Anabas testudineus_1 (residues 21-59)
- Kd [1]: 99 nM
- Kd [2]: 71 nM
